Measurements taken from US20250355001A1, “METHOD FOR DETECTING A TAU PROTEIN FRAGMENT IN A SAMPLE” (GTINVENT LIMITED, priority 2022, published 2025).
Where “and” joins values, the source holds several entries; their conditions need not be identical. Identical values can stand only once.

Columns and labels:
[1] = test system: hT40, dGA, dGAE and truncated tau fragments; assay: Binding ELISA / epitope mapping of anti-tau scAbs with truncated tau proteins and 13mer peptides; design: species or system human
Outline: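 Plates coated with 1 μg/ml tau protein, or 5 μg/ml streptavidin then 1 μg/ml biotinylated 13mer peptide; blocked with 2% MPBS. scAbs added at a starting concentration and double-diluted. Bound scAb detected with HRP anti-human C kappa and read as absorbance.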

[2] = target: T1, hT40 (T441, SEQ ID NO: 1) (Homo sapiens, UniProt P10636); assay: Biacore X100 SPR kinetics of scAbs for hT40; format: binding; details: Table 23; scAb captured, T441 (hT40) analyte; 1:1 model
T1 construct: Full length tau (hT40)
T1 sequence (P10636 1-441 isoform P10636-8): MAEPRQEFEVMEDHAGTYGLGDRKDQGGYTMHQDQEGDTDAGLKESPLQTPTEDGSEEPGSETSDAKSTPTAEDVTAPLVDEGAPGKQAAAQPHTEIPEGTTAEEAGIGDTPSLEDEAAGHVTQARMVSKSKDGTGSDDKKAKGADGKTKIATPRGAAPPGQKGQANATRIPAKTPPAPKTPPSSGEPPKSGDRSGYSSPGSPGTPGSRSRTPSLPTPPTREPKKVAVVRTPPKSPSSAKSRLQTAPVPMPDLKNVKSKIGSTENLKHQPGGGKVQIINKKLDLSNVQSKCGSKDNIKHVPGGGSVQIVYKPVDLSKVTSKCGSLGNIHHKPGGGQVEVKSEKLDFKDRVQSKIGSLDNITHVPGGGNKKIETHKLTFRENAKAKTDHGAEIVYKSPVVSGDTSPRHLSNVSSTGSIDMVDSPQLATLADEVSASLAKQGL
Outline: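 Captured scAb on anti-HuCk CM5 surface (flow cell 1 as reference) in HBS-EP+, capture set for theoretical RMax 100 RU; hT40 injected multi-cycle (0.15625–100 nM) or single-cycle (6.25–100 nM), 120 s association, 420 s dissociation, glycine pH 2.0 regeneration. Kinetics and affinity from 1:1 binding model fit.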

[3] = target: T2, htau40 (Homo sapiens, UniProt P10636); assay: Biacore X100 SPR kinetics of anti-tau mAbs on immobilised htau40; format: binding; details: Table 27; mAb format, immobilised htau40
T2 construct: Full length tau (hT40)
T2 sequence (P10636 1-441 isoform P10636-8): as above
Outline: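 Htau40 amine-coupled to CM5 chip (~250 RU, pH 4.0 immobilisation), reference flow cell subtracted; mAb injected at 0.78–25 nM in HBS-EP+, 120 s association, 600 s dissociation, glycine pH 1.5 regeneration. Kinetic and affinity constants from 1:1 binding model fit.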

[4] = test system: tau fragments in plasma of WT, L1 and L66 mice; assay: Capture ELISA on transgenic mouse plasma; details: Line66 transgenic model
Procedure: Plasma samples from WT, L1, L66+/− and L66+/+ of various ages (1.5-9 months) were taken as described. Mice were terminally anaesthetized using an overdose of sodium pentobarbital and blood was collected through cardiac puncture through a Plastipak syringe pre-rinsed with heparinised saline heparin (10 U/ml) (Heparin sodium salt; Sigma-Aldrich) and transferred into a plastic vial containing lithium heparin anticoagulant (Sarstedt Ltd.) Blood samples, kept on ice for no more than 30 minutes, were centrifuged to obtain plasma at 2000× g for 5 minutes at 6° C. Plasma samples were stored at −20° C.
For mouse plasma capture ELISA, 100 μL capture mAb was coated to the bottom of a black nunc 96 well ‘maxisorp’ plate at 2.5 μg/ml and incubated for 1 hour at 37° C. After washing and blocking as normal, several known standard solutions were set up in triplicate starting at 20 ng/ml of the desired protein before double diluted in the remaining wells. Mouse samples were added to wells in duplicate with a blank in between each sample group. Line1 plasma was diluted 1:10 before addition to plate to account for its high concentration while other samples were diluted 1:2 to account for potential matrix effects. […] The ELISA was developed using SuperSignal ELISA Femto Substrate (Thermo Scientific) and total luminescence was read on Clariostar Plus plate reader (BMG Labtech). […]

B1: CB7: human-specific N-terminal anti-tau clone, Table 10; SEQ ID NO: 364 (protein)
scFv: QVQLQESGPSLVKPSQTLSLTCTVSGFSLTNYRVGWVRQAPGKALEWVSNIRSGGTTWYNPALKSRLSITADTSKSQVSLSLSSVTTEDTAVYYCARDSSGDLYAYDYWGPGLLVTVSSEGKSSGASGESKVDDQAVLTQPSSVSRSLGQSVSMTCSGSSSNVGYGNYMAWFQQVPGSAPKLLIYGATSRASGVPDRFSGSRSGNTATLTISSLQAEDEADYYCASYDSTSGGVFGSGTRLTVLG
modifications: CB7 amino acid sequence
Tau proteins/fragments with positive scAb reactivity ([1]; Table 17, 'C' group scAbs, binding ELISA): hT40, 1-49, 1-155, 1-319 | Shortest region bound on hT40 ([1]; Table 17, 'C' group scAbs, incl. 13mer peptides): 13-25 | Epitope ([1]; Table 26 summary, top scAbs, residues of hT40): 13-25 | Detection scAb (Epitope) ([1]; Table 28 (LoD table), residues of hT40): CB7 (13-25) | binding region on hT40 ([1]; amino acid residues of hT40): 13-25 and 13-26 | Epitope ([1]; residue numbers of SEQ ID NO: 1 (hT40), CDR Tables 1-11): 13-25 | Binding region hT40 ([1]; second Table 26, own antibodies): (Binding region hT40 13-25) | ka [2]: 133400 M⁻¹ s⁻¹ | kd [2]: 0.0006936 s⁻¹ | ka [3]: 2.568e+06 M⁻¹ s⁻¹ | kd [3]: 0.009451 s⁻¹ | cross reaction with endogenous mouse tau [4]: does not cross react with endogenous mouse tau protein
